Source: patent publication US11807689 (TG THERAPEUTICS, dated 2023)

How the values were obtained:
FcγRIIIa 158F receptor = target: T1, FcγRIIIa 158F receptor (human, UniProt P08637 17-208, limits assumed); assay: SPR, receptor amine-coupled to the chip
T1 construct: in the Octet assay part of a 'Human Fc receptor panel' loaded on Anti-Penta His biosensors, so probably His-tagged; also called FcγRIIIA F158
Experimental: (§1) The method follows a direct binding assay methodology where the FcγRIIIa receptor is directly immobilized onto the flow cell on a sensor chip surface and samples are injected over the chip to assess binding. […] Independent duplicates of sample dilutions are injected over the chip, followed by surface regeneration between each cycle. The binding is measured in response units (RU). The kinetics of the binding reaction is determined by measuring changes in SPR due to the increase in mass in the close proximity to the biosensor chip surface. Change in the mass of the complex as a function of time is visualized as a sensorgram.
(§2) The equilibrium dissociation constants (K_D) of each sample is determined for each receptor.

FcγRIIIa 158V receptor = target: T2, FcγRIIIa 158V receptor (human, UniProt P08637 17-208, limits assumed); assay: SPR, receptor amine-coupled to the chip
T2 construct: in the Octet assay part of a 'Human Fc receptor panel' loaded on Anti-Penta His biosensors, so probably His-tagged; also called FcγRIIIA V158
Experimental: as §1, §2

[1] = target: C1q Receptor in the complement system (rabbit serum complement) (rabbit); assay: cell-based or functional assay
[2] = target: FcγIIIA Receptor on the effector cells (UniProt P08637 17-254, limits assumed); assay: cell-based or functional assay
Sequence of FcγIIIA Receptor on the effector cells (P08637 17-254 limits assumed): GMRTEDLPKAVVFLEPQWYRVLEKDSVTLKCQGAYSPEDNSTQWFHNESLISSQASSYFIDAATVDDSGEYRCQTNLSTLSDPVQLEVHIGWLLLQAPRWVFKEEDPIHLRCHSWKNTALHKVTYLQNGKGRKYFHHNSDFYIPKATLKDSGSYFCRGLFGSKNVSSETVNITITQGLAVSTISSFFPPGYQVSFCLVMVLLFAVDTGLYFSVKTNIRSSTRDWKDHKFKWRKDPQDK

T2 sequence (P08637 17-208 F176V limits assumed): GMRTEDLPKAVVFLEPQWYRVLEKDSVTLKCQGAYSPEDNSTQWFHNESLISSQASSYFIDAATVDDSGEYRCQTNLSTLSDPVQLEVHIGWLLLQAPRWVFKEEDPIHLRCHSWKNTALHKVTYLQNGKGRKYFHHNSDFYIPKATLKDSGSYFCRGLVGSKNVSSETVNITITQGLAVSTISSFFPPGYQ
T1 sequence (P08637 17-208 limits assumed): as the sequence (P08637 17-208 F176V limits assumed) above, with V160F counted along it

B1: TG-1101 (TG Therapeutics, Inc.) (antibody, human IgG1, kappa)
heavy: not shown
light: QIVLSQSPAILSASPGEKVTMTCRASSSVSYMHWYQQKPGSSPKPWIYATSNLASGVPARFSGSGSGTSYSFTISRVEAEDAATYYCQQWTFNPPTFGGGTRLEIKRTVAAPSVFIFPPSDEQLKSGTASVVCLLNNFYPREAKVQWKVDNALQSGNSQESVTEQDSKDSTYSLSSTLTLSKADYEKHKVYACEVTHQGLSSPVTKSFNRGEC
notes: Chimeric IgG1 made in rat YB2/0 cells, low-fucose N-glycan profile; also called ublituximab; UBX
fold higher affinity than OCREVUS® (FcγRIIIa 158F receptor): ~10 fold
fold higher affinity than OCREVUS® (FcγRIIIa 158V receptor): ~15 fold
CDC EC50 (Jeko-1 cells, rabbit serum) [1]: 0.67 µg/mL
ADCC EC50, fold lower than OCREVUS ® [2]: ~25 fold
